# Measurements: paper PMC4140777, “Recognition of Bungarus multicinctus Venom by a DNA Aptamer against β-Bungarotoxin”
# B1: βB-1 (ssDNA)
# DNA: AGCAGCACAGAGGTCAGATGGTTTTCCCCTTGTCGCTTTTGGTTCGTTCTGCCTCTATCTCCTATGCGTGCTACCGTGAA
# Biological target: α-bungarotoxin (α-BuTx) (Bungarus multicinctus, UniProt P60615 22-95)
# Test: 20 mM HEPES pH 7.4, 150 mM NaCl, 5 mM KCl, 2 mM MgCl2, 2 mM CaCl2, room temperature
# Settings: protein: commercial; label: 5'-FAM (FA, filter, EMSA); biotin (ELAA); stem-loop (predicted)
# Chain of α-bungarotoxin (α-BuTx) (P60615 22-95): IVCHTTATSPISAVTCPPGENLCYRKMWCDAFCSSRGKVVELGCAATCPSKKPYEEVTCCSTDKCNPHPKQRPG
binder,measurement,value
B1,binding result,no binding
